Source: patent US20060292657A1, “Phex substrates and methods using same” (priority 2003, published 2006)

Legend:
Experiment in all cases: Kinetic parameters for hydrolysis of internally quenched fluorogenic peptides by secPHEX
Format in all cases: biochemical, human
Conditions in all cases: other: 37° C., 10 mM Bis-Tris buffer pH 5.5, 150 mM NaCl
[1] = substrate: C[C@H](NC(=O)[C@H](CCC(N)=O)NC(=O)[C@H](CO)NC(=O)[C@H](CC(=O)O)NC(=O)[C@H](CCCNC(=N)N)NC(=O)[C@H](CCC(N)=O)NC(=O)[C@@H]1CCCN1C(=O)CNC(=O)c1ccccc1N)C(=O)N[C@@H](CCC(N)=O)C(=O)NCCNc1ccc([N+](=O)[O-])cc1[N+](=O)[O-]
Description: (§1) The human recombinant secPHEX was obtained following the procedure previously described (17, WO 00/50580). Purified secPHEX concentration was determined using the Bradford method (DC protein assay kit; Bio-Rad, Mississauga, ON, Canada). Membrane-bound recombinant human PHEX was expressed in LLC-PK1 cells (17, (WO 00/50580)) and membranes were prepared essentially as described by Guo et al. (34). Briefly, transfected cells resuspended in lysis buffer (150 mM NaCl, 20 mM Tris.HCl, pH 7.6) were disrupted by sonication. Cell debris were removed by centrifugation at 300 g for 15 min at 4 °C. Membranes were collected by centrifugation at 30,000 g for 50 min and solubilized for 2h with 1% n-dodecyl-β-D-maltoside in lysis buffer. Insoluble material was pelleted by centrifugation at 10,000 g for 15 min and protein concentrations of the supernatant determined using the Bradford method described above. PHEX amounts were evaluated by immunoblotting as described previously (17). NEP expression and purification were performed as described previously (36).
(§2) The hydrolysis of the IQFPs, at 37° C., in 10 mM Bit-Tris buffer pH 5.5 (0.35 to 1.0 ml final volume) containing 150 mM NaCl, was continuously followed measuring the fluorescence at γem=420 nm and γex=320 nm in a Hitachi F-2000™ spectrofluorometer. The cuvefte containing the buffer and the substrate was placed in a thermostatically controlled cell compartment for 5 min before the addition of the enzyme and the increase in fluorescence with time was continuously recorded for 5-10 min. The enzyme concentration for initial rate determination was chosen at a level intended to hydrolyze less than 5% of the substrate present. The slope was converted into micromoles of substrate hydrolyzed per min based on a calibration curve obtained from complete hydrolysis of each peptide. The inner-filter effect was corrected using an empirical equation as previously described (43). The kinetic parameters Km and kcat were calculated by the non-linear regression data analysis Grafit program (42). The kcat/Km values were calculated as the ratio of these two determined parameters. The apparent second order rate constant kcat/Km (*kIt/Km) was determined under pseudo first-order conditions, where [S]<<Km. These determinations were performed in two different substrate concentrations and the errors were less than 5% for any obtained value.
(§3) To determine the position of cleavage in peptides of the IQFPs combinatorial libraries, the products resulting from hydrolysis by secPHEX were submitted to N-terminal amino acid sequencing in a PPSQ-23protein sequencer (Shimadzu Tokyo, Japan). The scissile bonds in the IQFPs secPHEX substrates derived from PTHrP107-139, FGF-23and MEPE were determined by amino acid sequencing and by MALDI-TOF™ mass spectrometry (TofSpec-E™, Micromass, Manchester, U.K.) after isolation of the fragments resulting from the hydrolysis by secPHEX by analytical HPLC.
(§4) The assays were performed at 37° C., in 10 mM Bis-Tris buffer pH 5.5, containing 150 mM NaCl. Measurements were made as described under the heading “Experimental Procedures” above. Cleavage sites are indicated as arrows (↓). The standard deviations of the kinetic constants were less than 5%.
(§5) The assays were performed at 37° C., in 10 mM Bis-Tris buffer pH 5.5, containing 150 mM NaCl. Measurements were made as described under the heading “Experimental Procedures” above. Cleavage sites are indicated by arrows (↓). The standard deviations of the kinetic constants were less than 5%.
(§6) The assays were. performed at 37° C., in 10 mM Bis-Tris buffer pH 5.5, containing 150 mM NaCl. Measurements were made as described under the heading “Experimental Procedures” above. Cleavage sites are indicated by arrows (↓). The standard deviations of the kinetic constants were less than 5%.
(§7) The assays were performed at 37° C., in 10 mM Bis-Tris buffer pH 5.5, containing 150 mM NaCl. Measurements were made as described under “Experimental Procedures”. […]

[2] = substrate: CC(C)C[C@H](NC(=O)[C@H](Cc1c[nH]cn1)NC(=O)[C@H](CC(=O)O)NC(=O)c1ccccc1N)C(=O)N[C@@H](CO)C(=O)N[C@@H](CC(=O)O)C(=O)N[C@H](C(=O)N[C@@H](CO)C(=O)N[C@H](C(=O)N[C@@H](CCC(N)=O)C(=O)NCCNc1ccc([N+](=O)[O-])cc1[N+](=O)[O-])[C@@H](C)O)[C@@H](C)O
Description: as §1, §2, §3, §4, §5, §6, §7

[3] = substrate: CC[C@H](C)[C@H](NC(=O)[C@H](CCC(=O)O)NC(=O)[C@H](CC(N)=O)NC(=O)[C@H](CC(=O)O)NC(=O)[C@H](CC(C)C)NC(=O)CNC(=O)[C@H](CCCNC(=N)N)NC(=O)c1ccccc1N)C(=O)N[C@@H](CCC(N)=O)C(=O)NCCNc1ccc([N+](=O)[O-])cc1[N+](=O)[O-]
Description: as §1, §2, §3, §4, §5, §6, §7

[4] = substrate: CC(C)C[C@H](NC(=O)[C@H](Cc1c[nH]cn1)NC(=O)[C@@H](NC(=O)c1ccccc1N)[C@@H](C)O)C(=O)N[C@@H](CC(=O)O)C(=O)N[C@H](C(=O)N[C@@H](CCCCN)C(=O)N[C@@H](CCCCN)C(=O)N[C@@H](CCC(N)=O)C(=O)NCCNc1ccc([N+](=O)[O-])cc1[N+](=O)[O-])[C@@H](C)O
Description: as §1, §2, §3, §4, §5, §6, §7

[5] = substrate: N=C(N)NCCC[C@H](NC(=O)c1ccccc1N)C(=O)N[C@@H](CCCNC(=N)N)C(=O)N[C@@H](CC(=O)O)C(=O)N[C@@H](CC(=O)O)C(=O)N[C@@H](CO)C(=O)N[C@@H](CO)C(=O)N[C@@H](CCC(=O)O)C(=O)N[C@@H](CCC(N)=O)C(=O)NCCNc1ccc([N+](=O)[O-])cc1[N+](=O)[O-]
Description: as §1, §2, §3, §4, §5, §6, §7

B1: human recombinant secPHEX (Homo sapiens) (protein)
chain: SLQAKQEYCLKPECIEAAAAILSKVNLSVDPCDNFFRFACDGWISNNPIPEDMPSYGVYPWLRHNVDLKLKELLEKSISRRRDTEAIQKAKILYSSCMNEKAIEKADAKPLLHILRHSPFRWPVLESNIGPEGVWSERKFSLLQTLATFRGQYSNSVFIRLYVSPDDKASNEHILKLDQATLSLAVREDYLDNSTEAKSYRDALYKFMVDTAVLLGANSSRAEHDMKSVLRLEIKIAEIMIPHENRTSEAMYNKMNISELSAMIPQFDWLGYIKKVIDTRLYPHLKDISPSENVVVRVPQYFKDLFRILGSERKKTIANYLVWRMVYSRIPNLSRRFQYRWLEFSRVIQGTTTLLPQWDKCVNFIESALPYVVGKMFVDVYFQEDKKEMMEELVEGVRWAFIDMLEKENEWMDAGTKRKAKEKARAVLAKVGYPEFIMNDTHVNEDLKAIKFSEADYFGNVLQTRKYLAQSDFFWLRKAVPKTEWFTNPTTVNAFYSASTNQIRFPAGELQKPFFWGTEYPRSLSYGAIGVIVGHEFTHGFDNNGRKYDKNGNLDPWWSTESEEKFKEKTKCMINQYSNYYWKKAGLNVKGKRTLGENIADNGGLREAFRAYRKWINDRRQGLEEPLLPGITFTNNQLFFLSYAHVRCNSYRPEAAREQVQIGAHSPPQFRVNGAISNFEEFQKAFNCPPNSTMNRGMDSCRLW
notes: pure soluble form of PHEX (secPHEX); made in house
- Km [1]: 47.0 µM
- kcat [1]: 0.2 s⁻¹
- kcat/Km [1]: 4300 M⁻¹ s⁻¹
- Km [2]: 1.3 µM
- kcat [2]: 0.1 s⁻¹
- kcat/Km [2]: 77000 M⁻¹ s⁻¹
- Km [3]: 7.0 µM
- kcat [3]: 0.03 s⁻¹
- kcat/Km [3]: 4300 M⁻¹ s⁻¹
- Km [4]: 15.0 µM
- kcat [4]: 0.02 s⁻¹
- kcat/Km [4]: 1300 M⁻¹ s⁻¹
- Km [5]: 5.3 µM
- kcat [5]: 0.5 s⁻¹
- kcat/Km [5]: 94300 M⁻¹ s⁻¹
